Measurements reported in FireProtDB (doi:10.1093/protein/14.11.891).

B1: Sialidase, P29768 (parent)
chain: MTVEKSVVFKAEGEHFTDQKGNTIVGSGSGGTTKYFRIPAMCTTSKGTIVVFADARHNTASDQSFIDTAAARSTDGGKTWNKKIAIYNDRVNSKLSRVMDPTCIVANIQGRETILVMVGKWNNNDKTWGAYRDKAPDTDWDLVLYKSTDDGVTFSKVETNIHDIVTKNGTISAMLGGVGSGLQLNDGKLVFPVQMVRTKNITTVLNTSFIYSTDGITWSLPSGYCEGFGSENNIIEFNASLVNNIRNSGLRRSFETKDFGKTWTEFPPMDKKVDNRNHGVQGSTITIPSGNKLVAAHSSAQNKNNDYTRSDISLYAHNLYSGEVKLIDDFYPKVGNASGAGYSCLSYRKNVDKETLYVVYEANGSIEFQDLSRHLPVIKSYN

Variants of: B1
Conditions: Salmonella typhimurium (strain LT2 / SGSC1412 / ATCC 700720), pH 7, CD, Potassium phosphate 10 mM, reversible: yes, structure 1DIL, whole UniProt chain shown; for ddG of mutation (higher = less stable) / denaturant midpoint (higher = more stable) / unfolding free energy: 25 °C, GdnHCl; for Tm / change of melting temperature, mutant - wild type (higher = more stable): Thermal

| Variant | ddG of mutation (higher = less stable) [kcal/mol] | denaturant midpoint (higher = more stable) [M] | unfolding free energy [kcal/mol] | Tm [°C] | change of melting temperature, mutant - wild type (higher = more stable) [°C] |
| --- | --- | --- | --- | --- | --- |
| A69V | -0.62 | 1.42 | 4.86 | 60 | 3 |
| A53L | -0.81 | 1.64 | 5.05 | 62 | 5 |
